Test results from paper PMC2064205 (The Journal of Cell Biology, 2007).

T1: HA3-Ard1 (human, UniProt P41227 1-235)
T1 sequence: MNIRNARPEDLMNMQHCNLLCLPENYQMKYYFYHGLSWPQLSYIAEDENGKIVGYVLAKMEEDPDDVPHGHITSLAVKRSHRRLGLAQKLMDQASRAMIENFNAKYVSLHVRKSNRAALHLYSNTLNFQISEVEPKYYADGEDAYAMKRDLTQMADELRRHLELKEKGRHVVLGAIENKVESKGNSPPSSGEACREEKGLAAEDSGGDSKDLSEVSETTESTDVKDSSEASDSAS

T2: HA3-San (human, UniProt Q9GZZ1 1-169)
T2 sequence: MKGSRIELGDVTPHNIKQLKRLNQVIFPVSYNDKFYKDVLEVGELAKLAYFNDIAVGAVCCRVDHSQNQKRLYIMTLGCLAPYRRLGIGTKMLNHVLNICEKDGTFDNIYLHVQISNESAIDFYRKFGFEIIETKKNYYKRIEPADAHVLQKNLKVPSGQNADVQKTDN

B1: San (endogenous) (natural protein)
chain: T2 sequence
B2: Ard1 (endogenous) (natural protein)
chain: T1 sequence
B3: NatH (endogenous) (natural protein)
chain: MPAVSLPPKENALFKRILRCYEHKQYRNGLKFCKQILSNPKFAEHGETLAMKGLTLNCLGKKEEAYELVRRGLRNDLKSHVCWHVYGLLQRSDKKYDEAIKCYRNALKWDKDNLQILRDLSLLQIQMRDLEGYRETRYQLLQLRPAQRASWIGYAIAYHLLEDYEMAAKILEEFRKTQQTSPDKVDYEYSELLLYQNQVLREAGLYREALEHLCTYEKQICDKLAVEETKGELLLQLCRLEDAADVYRGLQERNPENWAYYKGLEKALKPANMLERLKIYEEAWTKYPRGLVPRRLPLNFLSGEKFKECLDKFLRMNFSKGCPPVFNTLRSLYKDKEKVAIIEELVVGYETSLKSCRLFNPNDDGKEEPPTTLLWVQYYLAQHYDKIGQPSIALEYINTAIESTPTLIELFLVKAKIYKHAGNIKEAARWMDEAQALDTADRFINSKCAKYMLKANLIKEAEEMCSKFTREGTSAVENLNEMQCMWFQTECAQAYKAMNKFGEALKKCHEIERHFIEITDDQFDFHTYCMRKITLRSYVDLLKLEDVLRQHPFYFKAARIAIEIYLKLHDNPLTDENKEHEADTANMSDKELKKLRNKQRRAQKKAQIEEEKKNAEKEKQQRNQKKKKDDDDEEIGGPKEELIPEKLAKVETPLEEAIKFLTPLKNLVKNKIETHLFAFEIYFRKEKFLLMLQSVKRAFAIDSSHPWLHECMIRLFNTAVCESKDLSDTVRTVLKQEMNRLFGATNPKNFNETFLKRNSDSLPHRLSAAKMVYYLDPSSQKRAIELATTLDESLTNRNLQTCMEVLEALYDGSLGDCKEAAEIYRANCHKLFPYALAFMPPGYEEDMKITVNGDSSAEAEELANEI

Key:
HA3-Ard1 = molecular target: T1, HA3-Ard1; test: co-IP
HA3-San = molecular target: T2, HA3-San; test: co-IP

Binder	percent of input pulled down (HA3-Ard1)	percent of input pulled down (HA3-San)
B1	< 10 % of input	
B2		> 10 % of input
B3		> 10 % of input
